The nature of the data set: protein stability index of a GFP-peptide fusion (GPS, HEK-293T) (PSI 1-6); higher = more stable.
[1] abbreviates: treatment: DMSO, c terminus: a fixed tail appended.
The mark [2] stands for this setting: treatment: MLN4924 1 uM, 8 h, c terminus: a fixed tail appended.

± gives the standard deviation.
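Further: 24-mer peptide tiles fused after GFP, lentivirally expressed, FACS-sorted into six equal bins by GFP/DsRed ratio, decoded by Illumina sequencing, PSI is the read-weighted mean bin number.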

For LLKRMESLKLKSSHHSKHKAPSKL [DLC1], the protein stability index by setting is: under setting [1], 3.03 ± 0.36; under setting [2], 3.1 ± 0.51.
The matching figures for LLLASGLVITDFFGHLINGAIAVF [PTGFR]: 3.29 ± 0.72 and 3.19 ± 0.86.
Take LLLLYFMQVIAIVLYLMMPIVNIS [PHTF1]: the protein stability index reads like this: under setting [1], 3.15 ± 0.42; under setting [2], 3.06 ± 0.52.
As for LLPVQVVTEHPLELIRVEVEILDL [PCDHGC5], the protein stability index runs as follows: under setting [1], 3.02 ± 0.66; under setting [2], 3.05 ± 0.85.
The matching figures for LLQNEFVGFMWRQRGRVISLWERL [MCOLN1]: 2.7 ± 0.19 and 2.68 ± 0.26.
Turning to LLRHQRIHTGERPYKCPECGKSFS [ZNF263], the protein stability index is, setting by setting: under setting [1], 2.71 ± 0.47; under setting [2], 3.58 ± 0.47.
Regarding LLSILPSLLGLLSFPRNNISYLVL [JAGN1], the protein stability index by setting is: under setting [1], 3.155 ± 0.027; under setting [2], 3.1 ± 0.43.
With LLTFQQITTVSKAKGASLFTCDLQ [VPS39], the protein stability index runs as follows: under setting [1], 2.14 ± 0.2; under setting [2], 2.07 ± 0.27.
The matching figures for LMADKVLRWERAWFPPAIMGVVSL [ARL6IP1]: 3.13 ± 0.66 and 2.45 ± 0.86.
For the sequence LMSAQTITSETTSTTTTTHITKTV [EPB41L3], the protein stability index by setting is: under setting [1], 4.5 ± 0.26; under setting [2], 4.68 ± 0.14.
Taken in the same sequence, the figures for LNDAKRELRFLLVYLHGDDHQDSD [FAF2] were 2.31 ± 0.36 and 2.23 ± 0.25.
Taken in the same sequence, the figures for LNHGASVNNTTLTNSTPLRAACFD [FEM1C] were 3.98 ± 0.31 and 3.94 ± 0.14.
The matching figures for LNKKLKSYSLSRKKIVHYTCFDQR [CDC14A]: 2.39 ± 0.26 and 2.35 ± 0.3.
On to LNMRSTYAKLAAVAVFFIMLIVYV [SEC22B], for which the protein stability index by setting is: under setting [1], 3.14 ± 0.36; under setting [2], 3.19 ± 0.23.
As to LNQIVTEPDANFPQFLHEGLSKPV [FAM104B], the protein stability index was determined as 3.86 ± 0.039 under setting [1] and 3.7 ± 0.42 under setting [2].
As for LPECLEYEEEFDYETESETESEIE [GNAS], the protein stability index is, setting by setting: under setting [1], 5.3 ± 0.15; under setting [2], 5.26 ± 0.23.
For LPPEKGREVAKELGIPYYETSVVA [RHOBTB2], the protein stability index under setting [1] was found to be 3.55 ± 0.24 and the protein stability index under setting [2] is 3.55 ± 0.18.
Turning to LPPSPPPSPASEQTVTVEEAAGGE [MAP2], the protein stability index runs as follows: under setting [1], 5.4 ± 0.27; under setting [2], 5.51 ± 0.16.
LPPVAVRSLQDLARIAIRGTIKKI [PCMTD2]: the protein stability index stood at 3.2 ± 0.34 under setting [1] and 3.12 ± 0.22 under setting [2].
The matching figures for LPQEHSQIYHCTKRKEEECSTTDH [TBX5]: 5.39 ± 0.21 and 5.49 ± 0.11.
On to LPWQGLKADTLKERYQKIGDTKRA [CSNK1G3], for which the protein stability index stood at 3.77 ± 0.11 under setting [1] and 3.76 ± 0.41 under setting [2].
Taken in the same sequence, the figures for LPYPKDVYSVSVDQKERCIIVRTT [DPCD] were 2.21 ± 0.22 and 2.18 ± 0.22.
Taken in the same sequence, the figures for LQIELGKCKAEHDQLLLNYAKKES [LMNB1] were 3.29 ± 0.24 and 3.33 ± 0.33.
Taken in the same sequence, the figures for LQSYQAEIIELRRTVNALEIELQA [KRT33B] were 2.59 ± 0.54 and 2.27 ± 0.3.
Take LQVAGLSEEQLQEPITGWRKTVCH [LPCAT4]: the protein stability index by setting is: under setting [1], 3.29 ± 0.25; under setting [2], 3.47 ± 0.12.
As to LRLLVESDINSIRRILDELTLCKS [KRT34], the protein stability index is, setting by setting: under setting [1], 2.22 ± 0.5; under setting [2], 2.16 ± 0.12.
As for LRNITNSQAPDGRRKSEAGSGAAS [CDC25B], the protein stability index runs as follows: under setting [1], 4.89 ± 0.24; under setting [2], 5.1 ± 0.16.
Consider LRPPHTSRGTSQTPNASSPGNPTA [LPCAT4], for which the protein stability index reads like this: under setting [1], 4.76 ± 0.17; under setting [2], 4.85 ± 0.21.
The matching figures for LRQQQHKQNKQVLGYCLLLMLAGM [DNAJC4]: 2.28 ± 0.48 and 2.41 ± 0.18.
With LSALLQFGVTYLEDYSAEYIIQQG [BCL2L13], the protein stability index came to 2.9 ± 0.42 under setting [1] and 2.43 ± 0.55 under setting [2].
Taken in the same sequence, the figures for LSANLHGGAVVANYPYDKSFEHRV [CPN1] were 3.46 ± 0.27 and 3.5 ± 0.28.
As for LSDREVVNLFLHFTVNPKPRVEYI [BTBD1], the protein stability index was found to be 2.98 ± 0.73 under setting [1] and 2.5 ± 0.26 under setting [2].
Regarding LSEDYNKMTPVKNYQAHQSRVTMI [WDFY2], the protein stability index runs as follows: under setting [1], 2.71 ± 0.12; under setting [2], 2.83 ± 0.13.
The matching figures for LSEKEINAREESLVEELSPASEKK [BCL2L13]: 5.42 ± 0.46 and 5.58 ± 0.15.
For the sequence LSFYDAERHCHLYTFHARFGEVRP [TRIM35], the protein stability index is, setting by setting: under setting [1], 2.34 ± 0.54; under setting [2], 2.3 ± 0.55.
Taken in the same sequence, the figures for LSLQDQVDTLTFQSQSLRDRARRF [MTUS2] were 3.91 ± 0.26 and 3.84 ± 0.18.
Taken in the same sequence, the figures for LSRCEFQRAKCKDPQLEIAYRGNC [SMOC2] were 3.23 ± 0.42 and 3.14 ± 0.23.
In the case of LSRHSKGLQILGHTLRASMRELGL [KCNA4], the protein stability index is, setting by setting: under setting [1], 2.25 ± 0.21; under setting [2], 2.25 ± 0.024.
Taken in the same sequence, the figures for LSSAPSSRAEPIRTTVFQYPVGWP [ZMAT5] were 2.86 ± 0.22 and 2.94 ± 0.19.
In the case of LTADSRKSHLIFPQPNYADTLISQ [PCDHGA10], the protein stability index is 3.17 ± 0.17 under setting [1] and 3.11 ± 0.27 under setting [2].
In the case of LTASTMEILLDFVYTETVHVTVEN [KLHL12], the protein stability index by setting is: under setting [1], 2.9 ± 0.79; under setting [2], 3.29 ± 1.4.
Taken in the same sequence, the figures for LTICYPEYAGSNTYEEAAAYIQCQ [GNAI1] were 2.46 ± 0.25 and 2.43 ± 0.46.
For the sequence LTKASLKPRGCSKPPWRPPGGKL [SPACA9], the protein stability index reads like this: (treatment: DMSO, c terminus: native) 2.55 ± 0.65; (treatment: MLN4924 1 uM, 8 h, c terminus: native) 3.35 ± 1.
LTPGFSDNAIMLFSPDFTLRNTLK [FAN1] had a protein stability index under setting [1] of 2.4 ± 0.3 and a protein stability index under setting [2] of 2.65 ± 0.54.
As for LTSMRRLSSIKRDTNSIAKAIKAR [STX11], the protein stability index stood at 3.4 ± 0.26 under setting [1] and 3.64 ± 0.34 under setting [2].
The matching figures for LVAEVPKEHWTPEGHSIVGFAMYY [SAT1]: 2.81 ± 0.58 and 2.57 ± 0.39.
In the case of LVENAKNFPQCVLEISDQEVLEWY [EFHC1], the protein stability index runs as follows: under setting [1], 2.96 ± 0.23; under setting [2], 2.87 ± 0.23.
The matching figures for LVLKAHHDIVRFLVQLDDYRFASA [WDR41]: 2.96 ± 0.52 and 2.96 ± 0.67.
For the sequence LVQLRGRLTSQDWERVHLIVAGGY [ALG2], the protein stability index is, setting by setting: under setting [1], 2.03 ± 0.62; under setting [2], 2.44 ± 0.58.
Taken in the same sequence, the figures for LVSQSNDLSSLRAKYPHDVVNHLS [SPACA9] were 3.09 ± 0.19 and 3.19 ± 0.21.
Take LWENTRFTDCSFFVRGQEFKAHKS [SPOPL]: the protein stability index came to 2.74 ± 0.32 under setting [1] and 2.98 ± 0.25 under setting [2].
The matching figures for LWSLFVPFTVYQVRWLRPVHRQLG [AUP1]: 2.82 ± 0.59 and 2.59 ± 0.69.
